From publication PMC9603599, “NAC1 Maintains Root Meristem Activity by Repressing the Transcription of E2Fa in Arabidopsis” come the findings set out here.

For the series, the target named is T1, GST-NAC1(1-199) (Arabidopsis thaliana, UniProt Q84TE6 1-199).
T1 sequence: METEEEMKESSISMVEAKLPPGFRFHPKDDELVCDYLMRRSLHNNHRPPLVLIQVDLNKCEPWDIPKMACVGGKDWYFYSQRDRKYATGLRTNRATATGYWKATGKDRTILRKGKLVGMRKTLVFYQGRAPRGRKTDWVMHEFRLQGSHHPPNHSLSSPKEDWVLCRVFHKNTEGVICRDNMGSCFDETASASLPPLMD
The series can be described thus: EMSA; LightShift Chemiluminescent EMSA kit (Thermo 20148), manufacturer's instructions; buffer, salt, pH and temperature not stated. The note with it: protein: recombinant, tags: GST (N-terminal, pGEX-4T-1), chain copies: 2, label: biotin. In general terms: In EMSA bound probe runs differently from free probe, usually more slowly.

B1: E2Fa promoter probe P2 (E2Fa-BIO-F2/R2) (dsDNA)
DNA 1: CGTGTAGAGTTGCGATTTGCAGAGAATTGTGATTCTACAATTGGAGGCAAGATGATGAATGTGTGAACTGATTAGCGTAA
DNA 2: TTACGCTAATCAGTTCACACATTCATCATCTTGCCTCCAATTGTAGAATCACAATTCTCTGCAAATCGCAACTCTACACG
Consider B1, for which, where the note is “blunt, P2 = F2/R2 by number”, the binding result is listed as “binds”.

B2: E2Fa promoter probe P1 (E2Fa-BIO-F1/R1) (dsDNA)
DNA 1: CGTGAAATGCCAGTGGTCTATGATCGGATTCTCTGTTTCCCGTTCTCCTTCTTTTTTTGGGCCTTAAATCCGTTT
DNA 2: AAACGGATTTAAGGCCCAAAAAAAGAAGGAGAACGGAAACAGAGAATCCGATCATAGACCACTGGCATTTCACG
Regarding B2, the binding result (printed strands differ by one nt: F1 has CCCGTT where R1 complement gives CCGTT (1-nt bulge or typo), P1 = F1/R1 by number) was “binds”.
